This experiment addresses murine c-Met polypeptide (Met receptor as expressed on DA3 mouse mammary adenocarcinoma cells) (mouse) (UniProt P16056). The experiment in a line: cell-based or functional assay.

For one substance, in vitro invasion through Matrigel (invading cells per filter, DA3 cells, HGF/SF 100 ng/ml) (cells per filter) results are on record in patent US7872117.

In turn, “Hepatocyte growth factor/scatter factor (HGF/SF) (ligand)” displayed an in vitro invasion through Matrigel (invading cells per filter, DA3 cells, HGF/SF 100 ng/ml) (cells per filter) of 80.
